{
  "source": "patent US20200231684A1",
  "about": "(published 2020)",
  "key": {"human IL-36R on cells [1]": {"target": "T1, human IL-36R on cells (human, UniProt Q9HB29 20-575)", "T1 sequence (looked up)": "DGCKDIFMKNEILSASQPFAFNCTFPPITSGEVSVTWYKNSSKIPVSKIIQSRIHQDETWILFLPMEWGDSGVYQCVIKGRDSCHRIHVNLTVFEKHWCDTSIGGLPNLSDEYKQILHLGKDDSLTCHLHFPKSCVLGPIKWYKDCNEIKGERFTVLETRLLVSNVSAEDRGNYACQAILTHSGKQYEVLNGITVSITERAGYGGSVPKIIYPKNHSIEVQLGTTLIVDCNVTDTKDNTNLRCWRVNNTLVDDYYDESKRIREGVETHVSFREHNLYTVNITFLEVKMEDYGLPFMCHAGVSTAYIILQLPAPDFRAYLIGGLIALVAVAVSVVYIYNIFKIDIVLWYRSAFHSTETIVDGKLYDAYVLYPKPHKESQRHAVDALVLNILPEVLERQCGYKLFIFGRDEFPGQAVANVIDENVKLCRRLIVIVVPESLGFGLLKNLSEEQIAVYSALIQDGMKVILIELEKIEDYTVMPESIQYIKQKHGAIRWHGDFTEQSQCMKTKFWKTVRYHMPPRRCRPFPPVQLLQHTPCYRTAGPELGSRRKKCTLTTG", "test": "cell-based or functional assay"}, "[2]": {"target": "cynomolgus IL-36R on BaF/3 cells (cynomolgus, UniProt A0A2K5WSK9 20-558)", "sequence (A0A2K5WSK9 entry or part of it)": "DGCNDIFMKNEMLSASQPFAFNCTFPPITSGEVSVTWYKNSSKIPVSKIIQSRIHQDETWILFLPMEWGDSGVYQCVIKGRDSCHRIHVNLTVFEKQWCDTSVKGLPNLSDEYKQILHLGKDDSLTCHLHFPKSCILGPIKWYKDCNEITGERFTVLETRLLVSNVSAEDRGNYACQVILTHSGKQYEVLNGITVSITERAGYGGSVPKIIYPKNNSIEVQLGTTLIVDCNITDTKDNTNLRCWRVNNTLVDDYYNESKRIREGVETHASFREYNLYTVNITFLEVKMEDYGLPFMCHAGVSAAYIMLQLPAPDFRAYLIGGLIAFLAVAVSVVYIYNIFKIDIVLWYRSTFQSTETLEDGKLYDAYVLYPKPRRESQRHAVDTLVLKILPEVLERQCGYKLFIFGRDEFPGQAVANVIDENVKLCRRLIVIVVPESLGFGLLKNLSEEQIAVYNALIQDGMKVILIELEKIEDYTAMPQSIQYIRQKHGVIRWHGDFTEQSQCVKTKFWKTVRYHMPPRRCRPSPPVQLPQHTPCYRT", "test": "cell-based or functional assay"}, "[3]": {"target": "T2, recombinant human IL-36R (ECD) (human, UniProt Q9HB29 20-332)", "T2 construct": "range 20-332; also called IL-1RL2; IL-1Rrp2", "T2 sequence (looked up)": "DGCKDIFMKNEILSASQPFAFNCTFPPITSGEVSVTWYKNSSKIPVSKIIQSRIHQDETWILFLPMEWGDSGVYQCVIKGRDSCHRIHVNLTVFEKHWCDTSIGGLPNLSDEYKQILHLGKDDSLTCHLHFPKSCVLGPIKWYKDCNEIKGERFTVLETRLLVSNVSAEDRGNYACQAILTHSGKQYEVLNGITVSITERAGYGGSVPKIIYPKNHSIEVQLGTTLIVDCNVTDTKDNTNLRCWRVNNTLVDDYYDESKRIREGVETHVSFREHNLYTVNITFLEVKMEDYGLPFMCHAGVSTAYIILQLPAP", "test": "SPR (ProteOn), single IL-36R surface coat concentration", "method_in_brief": "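Anti-IL-36R antibodies, single-column purified from hybridoma material, were analyzed by ProteOn SPR for binding kinetics and affinity to recombinant human IL-36R. Global fit used 7 receptor surface densities; the other format used a single surface coat concentration.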"}, "human IL-36R on cells [4]": {"target": "T1, human IL-36R on cells", "test": "flow cytometry, HEK293 cells transfected with full-length human IL-36R"}, "human IL-36R on cells [5]": {"target": "T1, human IL-36R on cells", "test": "cell-based or functional assay", "remark": "listed apart in the source"}, "human IL-1R1": {"target": "T3, human IL-1R1 (human, UniProt P14778 18-336, limits assumed)", "T3 construct": "also called IL-1RI", "T3 sequence (looked up)": "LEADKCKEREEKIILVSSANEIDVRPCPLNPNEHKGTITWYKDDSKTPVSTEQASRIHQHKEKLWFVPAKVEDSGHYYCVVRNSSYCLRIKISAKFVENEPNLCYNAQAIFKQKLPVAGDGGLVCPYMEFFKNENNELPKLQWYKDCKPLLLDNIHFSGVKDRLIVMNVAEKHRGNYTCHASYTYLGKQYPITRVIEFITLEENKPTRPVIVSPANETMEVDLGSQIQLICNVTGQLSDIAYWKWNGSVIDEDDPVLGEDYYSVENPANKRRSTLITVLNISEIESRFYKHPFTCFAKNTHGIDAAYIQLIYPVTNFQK", "test": "BLI (Fortebio Octet), antibody injected over antigen surface", "experimental": "(§1) B) Molecular selectivity over mouse IL-36R and human IL-1R1 The mouse and chimeric anti-IL-36R antibodies were also injected over either a mouse IL-36R or a human IL-1R1 surface at a concentration of 100 nM. The binding signal to mouse IL-36R and to human IL-1R1 for these antibodies measured using the Fortebio Octet (Fortebio, Menlo Park, Calif.) is zero, which indicates these antibodies selectively bind to human IL-36R."}, "mouse IL-36R": {"target": "T4, mouse IL-36R (mouse, UniProt Q9ERS7 22-338)", "T4 sequence (looked up)": "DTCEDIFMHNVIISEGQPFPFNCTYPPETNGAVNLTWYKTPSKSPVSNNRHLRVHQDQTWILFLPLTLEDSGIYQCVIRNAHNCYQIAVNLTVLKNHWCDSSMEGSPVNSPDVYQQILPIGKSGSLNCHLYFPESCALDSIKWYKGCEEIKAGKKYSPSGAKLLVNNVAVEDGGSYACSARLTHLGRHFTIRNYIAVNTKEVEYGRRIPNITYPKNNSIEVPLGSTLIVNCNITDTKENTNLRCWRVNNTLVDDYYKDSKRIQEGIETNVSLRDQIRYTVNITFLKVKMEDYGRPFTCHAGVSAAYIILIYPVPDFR", "test": "BLI (Fortebio Octet), antibody injected over antigen surface", "experimental": "as §1"}, "[6]": {"target": "T2, recombinant human IL-36R (ECD)", "test": "SPR (ProteOn), recombinant human IL-36R at 7 surface densities, global fit", "experimental": "A) Kinetics and binding affinities of anti-IL-36R antibodies binding to recombinant human IL-36R were measured using the Proteon (Bio-Rad, Hercules, Calif.) using material generated from hybridoma following single column purification. […] The binding affinities of the mouse antibodies to human IL-36R run at 7 different surface densities (globally fit) is shown in Table 1. Binding of the chimeric anti-IL36R IgGs is equivalent to the respective mouse leads."}},
  "data": [
    {"binder": "antibody 73F6 (antibody, V domains shown, Mouse monoclonal from hybridoma; also called 73F6F8; Mouse 73F6) VH: QVQLKESGPGLVAPSQSLSITCTVSGFSLTNYAVHWVRQFPGKGLEWLGVIWSDGSTDYNAPFKSRLSINKDNSKSQVFFKMNSLQTDDTAIYYCARKGGYSGSWFAYWGQGTLVTVSA VL: DIVMTQSQKFLSTSVGVRVSVTCKASQDVGTNVLWYQQKIGQSPKALIYSASYRHSGVPDRFTGSGSGTDFTLIITNVQSEDLAEYFCQQYSRYPLTFGPGTKLELK", "values": [
      {"measurement": "IC90, GM-CSF release, NCI/ADR-RES cells, trun-IL-36a", "setting": "human IL-36R on cells [1]", "value": 5.9, "unit": "nM"},
      {"measurement": "IC90, GM-CSF release, NCI/ADR-RES cells, trun-IL-36b", "setting": "human IL-36R on cells [1]", "value": 1.7, "unit": "nM"},
      {"measurement": "IC90, GM-CSF release, NCI/ADR-RES cells, trun-IL-36g", "setting": "human IL-36R on cells [1]", "value": 1.4, "unit": "nM"},
      {"measurement": "IC90, IL-6 release, NCI/ADR-RES cells, trun-IL-36a", "setting": "human IL-36R on cells [1]", "value": 19, "unit": "nM"},
      {"measurement": "IC90, IL-6 release, NCI/ADR-RES cells, trun-IL-36b", "setting": "human IL-36R on cells [1]", "value": 5.1, "unit": "nM"},
      {"measurement": "IC90, IL-6 release, NCI/ADR-RES cells, trun-IL-36g", "setting": "human IL-36R on cells [1]", "value": 2.2, "unit": "nM"},
      {"measurement": "IC90, IL-8 release, NCI/ADR-RES cells, trun-IL-36a", "setting": "human IL-36R on cells [1]", "value": 3.2, "unit": "nM"},
      {"measurement": "IC90, IL-8 release, NCI/ADR-RES cells, trun-IL-36b", "setting": "human IL-36R on cells [1]", "value": 0.8, "unit": "nM"},
      {"measurement": "IC90, IL-8 release, NCI/ADR-RES cells, trun-IL-36g", "setting": "human IL-36R on cells [1]", "value": 0.9, "unit": "nM"},
      {"measurement": "IC90, pNFκB, NCI/ADR-RES cells, trun-IL-36a", "setting": "human IL-36R on cells [1]", "value": 2.8, "unit": "nM"},
      {"measurement": "IC90, pNFκB, NCI/ADR-RES cells, trun-IL-36b", "setting": "human IL-36R on cells [1]", "value": 3, "unit": "nM"},
      {"measurement": "IC90, pNFκB, NCI/ADR-RES cells, trun-IL-36g", "setting": "human IL-36R on cells [1]", "value": 1.5, "unit": "nM"},
      {"measurement": "IC90, pNFκB, BaF/3 cynomolgus IL-36R cells, trun-IL-36a", "setting": "[2]", "value": 0.5, "unit": "nM"},
      {"measurement": "IC90, pNFκB, BaF/3 cynomolgus IL-36R cells, trun-IL-36b", "setting": "[2]", "value": 0.7, "unit": "nM"},
      {"measurement": "IC90, pNFκB, BaF/3 cynomolgus IL-36R cells, trun-IL-36g", "setting": "[2]", "value": 0.8, "unit": "nM"},
      {"measurement": "Kd", "setting": "[3]", "value": "< 0.1", "unit": "nM"},
      {"measurement": "EC50", "setting": "human IL-36R on cells [4]", "value": 0.746, "unit": "nM"},
      {"measurement": "IC90, IL-8 release, human primary keratinocytes (NHK), trun-IL-36a", "setting": "human IL-36R on cells [5]", "value": 17.8, "unit": "nM"},
      {"measurement": "IC90, IL-8 release, human primary keratinocytes (NHK), trun-IL-36b", "setting": "human IL-36R on cells [5]", "value": 26, "unit": "nM"},
      {"measurement": "IC90, IL-8 release, human primary keratinocytes (NHK), trun-IL-36g", "setting": "human IL-36R on cells [5]", "value": 2.1, "unit": "nM"},
      {"measurement": "IC90, pNFκB, human primary keratinocytes (NHK), trun-IL-36a", "setting": "human IL-36R on cells [5]", "value": 8.2, "unit": "nM"},
      {"measurement": "IC90, pNFκB, human primary keratinocytes (NHK), trun-IL-36b", "setting": "human IL-36R on cells [5]", "value": 5.2, "unit": "nM"},
      {"measurement": "IC90, pNFκB, human primary keratinocytes (NHK), trun-IL-36g", "setting": "human IL-36R on cells [5]", "value": 1.3, "unit": "nM"},
      {"measurement": "binding result", "setting": "human IL-1R1", "value": "no binding (tested: 100 nM)"},
      {"measurement": "binding result", "setting": "mouse IL-36R", "value": "no binding (tested: 100 nM)"},
      {"measurement": "Kd", "setting": "[6]", "value": 0.025, "unit": "nM"}
    ]}
  ]
}
